In patent publication US20240218054A1 (MABLOC, published 2024):

B1: ADI-49040 (antibody, V domains shown)
VH: EVQLVESGGALVHPGGSLGLSCAASGFTFSDHYMDWVRQAPGKGLEWVGRIRNKPNSYATQYAASVKGRFTISRDDSKKSLYLQMNSLNTEDTAVYYCARVRDGEYDYWGQGTLVTVSS
VL: DIQMTQSPSTLSASVGDRVTITCRASQSISTWLAWYQLKPGKAPKLLIYKASNLQSGVPSRFSGSGSGTEFTLTISSLQPDDFATYYCQQYNSYSPWGQGTKLEIK
notes: full-length IgG; also called Antibody Number 74
B2: ADI-49168 (antibody, V domains shown)
VH: EVQLLESGGGLVQPGGSLRLSCAASGFTFSSYAMSWVRQATGRGLEWVSSIRSSGGRTEYADSVKGRFTISRDNSKNTLYLQMDSLRAEDTALYYCAKHYDSSGYYYEDYWGQGTLVTVSS
VL: DIVLTQSPSTLSASVGDRVTITCRASQSISDWLAWYQQKPGKAPGLLIYRASGLESGVPSRFSGSGSGTEFTLTISSLQPDDFATYYCHQYKDFPWTFGQGTKVDIK
notes: full-length IgG; also called Antibody Number 73
B3: ADI-49044 (antibody, V domains shown)
VH: QVQLVESGGGVVQPGRSLRLSCAASGFAFSSYGMHWVRQAPGKGLEWVAGMRFDGTKIYYADSVKGRFTISRDNSKNTLYLQMNSLRAEDTAVYFCARDLEVGAEYIYYYYGMDVWGQGTTVTVSS
VL: QPVLTQPPSASGTPGQRVTISCSGSSSNIGTNTVSWYQQLPGTAPQLLVFSRTQRPSGVPDRFSGSKSGTSASLAISGLQSDDEADYYCAAWDDSRNGWVFGGGTKLTVL
notes: full-length IgG; also called Antibody Number 8
B4: ADI-42189 (antibody, V domains shown)
VH: EVQLVESGGGVVQPGWSLRLSCAVSGFTFSSYAMHWVRQAPGKGLEWVAVISYDGSYKWYADSVKGRFTISRDNSKNTVYLQMNSLRAEDTAVYYCASLWFIVMTMSKNPETDYWGQGTLVTVSS
VL: DIQVTQSPSSLSASVGDRVTITCRASQGIRNDLAWYQQRPGKAPKRLIYAASSLQSGVPSRFSGSGSGTEFTLTISSLQPEDFATYYCLQHHSYPWTFGQGTKVEIK
notes: full-length IgG; also called Antibody Number 81
B5: ADI-49145 (antibody, V domains shown)
VH: EVQLLESGGGLVQPGGSLRLSCAASGFIFSDYYMDWVRQTPGKGPEWVGRITNRPNSYTTEYAASVKGRFTISRDDSTNSLFLHMNSLKTEDTAVYYCTRITGDRYWYLDLWGRGTLVTVSS
VL: DIVLTQSPSSLSASVGDRVTITCRASQSINNYLNWYQQKPGKAPNLLIFGASTLQSGVPSRFTGSGSGTVFTLTISSLQRDDFVIYYCQQTYSASGSFGQGTKVEIK
notes: full-length IgG; also called Antibody Number 69
B6: ADI-49162 (antibody, V domains shown)
VH: EVQLVESGGTFLQPGGSLRLSCVASGFTFGTHAMSWVRQAPGKGLEWVSTFSGSGGRTYYADSVKGRFTISRDNSKSTLYLEMSALRAEDTAVYYCAKFYDSSGYYYFDYWGQGTLVTVSS
VL: DIQLTQSPSTLSASVGDRVTVTCRASQNVGGWLAWYQQKPGKAPKLLIFQASRLENGVPSRFSANASGTEFTLTIGSLQPDDFATYYCQQYNTYPYTFGQGTKVDIK
notes: full-length IgG; also called Antibody Number 83
B7: ADI-42219 (antibody, V domains shown)
VH: QVQLVESGGGVVQPGRSLRLSCAASGFTFSSLAMHWVRQAPGKGLEWVATISYDVSNKYYADSVKGRFTISRDNSKNTLFLQMNSLRPEDTAVYYCARGYTGYDGFDYWGQGTLVTVSS
VL: QPVLTQPRSVSGSPGQSVTISCTGTSSDVGGYNYVSWYQQHPGKAPKLMISDVSKRPSGVPDRFSGSKSGNTASLTISGLQADDEADYYCCSYATNYGVVFGGGTKVTVL
notes: full-length IgG; also called Antibody Number 77
B8: ADI-49561 (antibody, V domains shown)
VH: EVQLLESGGGVVQPGRSLRLSCVASGFTFSSYGMHWVRQAPGKGLEWVALISYDGSNKYYADSVKGRFTISRDNSKNTLYLQMNSLRAEDTAVYYCAKDQCGGDCTADYWGQGTLVTVSS
VL: QSVLTQPASVSGSPGQSITISCTGTSSDVGGDKYVSWYQQHPGKAPKPMIYEVSNRPSGVSNRFSGSKSGNTASLTISGLQAEDEADYYCSSYTSSSTPVVFGGGTKLTVL
notes: full-length IgG; also called Antibody Number 76
B9: ADI-45136 (antibody, V domains shown)
VH: EVQLVESGGGVVRPGRSLRLSCAASGFTFSSYGMHWVRQAPGKGLEWVAVIRFDGSNTVYADSVKGRFTISRDNSKNTLYLQMNSLRAEDTAVYYCAKTYDSNAYYYLDYWGQGTLVTVSS
VL: DIVMTQTPSTLSASVGDRVTVTCRASQSISDWLAWYQQKAGKAPKLLIYRASSLESGVPPRFSGSGSGTEFTLTISSLRPDDFATYYCQQYNRYPYTFGQGTKVDIK
notes: full-length IgG; also called Antibody Number 80
B10: ADI-45148 (antibody, V domains shown)
VH: EVQLLESGGGLVQPGRSLRLSCAASGFTFDDYAMHWVRQAPGKGLEWVSGISWNSGSIGYADSVKGRFTISRDNAKNSLYLQMNSLRAEDTALYYCAKDIGDSYGSGSYYLPYGAYYGMDVWGQGTTVTVSS
VL: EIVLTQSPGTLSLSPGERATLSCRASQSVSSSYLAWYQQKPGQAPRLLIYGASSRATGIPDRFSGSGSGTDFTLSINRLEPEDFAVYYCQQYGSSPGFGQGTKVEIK
notes: full-length IgG; also called Antibody Number 72
B11: ADI-46722 (antibody, V domains shown)
VH: EVQLVESGPGLVKPSGTLSLTCAVSGGSISSSNWWSWVRQPPGKGLEWIGEIYHSESTNYNPSLKSRVTISVDKSKNQFSLKLSSVTAADTAVYYCARDFWSGSNWFDPWGQGTLVTVSS
VL: QSALIQPPSVSAAPGQKVTISCSGSSSNIGNNYVSWYQQLPGTAPKLLIYDNNKRPSGIPDRFSGSKSGTSATLGITGLQTGDEADYYCGTWDNSLGVVFGGGTQLTVL
notes: full-length IgG; also called Antibody Number 71
B12: ADI-45078 (antibody, V domains shown)
VH: EVQLVESGGGLIQPGGSLRLSCAASGFSFSSHAMTWVRQAPGKGLQWVSSIRGSDRTTNYADSVKGRFTVSRDNSKNTLYLQMNSLRAEDTAIYYCAKYYDSSGYYYFDHWGQGTLVTVSS
VL: DIRMTQSPSTLSASIGDRVTITCRASQSISDWLAWYLQKPGKAPSLLIYRASSLETGVPSRFSGRGSGTEFTLTISSLQPDDFGTYYCQQYNRDPYTFGQGTKVDIK
notes: full-length IgG; also called Antibody Number 82
B13: ADI-50535 (antibody, V domains shown)
VH: QVQLVQSGAEVKKPGASVKVSCKASGYTFTSYGISWVRQAPGQGLEWMGWISAYNGNTNYAQKLQGRVTMTTDTSTSTAYMELRSLRSDDTAVYYCARRPYYYGSRRPAGHMDVWGQGTTVTVSS
VL: NFMLTQPHSVSESPGKTVTISCTRSSGSIASNYVQWYQQRPGSSPTTVIYEDNQRPSGVPDRFSGSIDSSSNSASLTISGLKTEDEADYYCQSYDSSNVVFGGGTKVTVL
notes: full-length IgG; also called Antibody Number 78
B14: ADI-42187 (antibody, V domains shown)
VH: EVQLLESGGGLVKPGGSLRLSCAASGFTFSSYSMNWVRQAPGKGLEWVSSISSRSSFMYYADSVKGRFTISRDNAKNSLYLQMNSLRVEDTAVYYCARDNSEVEDYGDYVLYHYYGMDVWGQGTTVTVSS
VL: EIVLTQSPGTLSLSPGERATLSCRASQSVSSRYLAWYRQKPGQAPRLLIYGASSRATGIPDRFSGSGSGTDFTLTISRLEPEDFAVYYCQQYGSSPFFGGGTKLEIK
notes: full-length IgG; also called Antibody Number 75
B15: ADI-49033 (antibody, V domains shown)
VH: EVQLVESGGGLVQPGGSLRLSCAASGLIFRNYAMSWVRQAPGKGLEWVSSFSGSGGSAYYADSVKGRFTISRDNSKSTVYLQMNRLRVEDTAVYYCAKDMAVSVHRGWFDDWGQGTLVTVSS
VL: EIVMTQSPSALSASVRDRVTITCRASQSIGSDLNWYQQRPGKAPMLLIYAATGLQSGVPSRFSGSGSGTDFTLTISNLQPEDFATYYCQQSYSPPMYTFGQGTKVDIK
notes: full-length IgG; also called Antibody Number 7
B16: ADI-45128 (antibody, V domains shown)
VH: QVQLQESGPGLVRPSQTLSLTCTVSGGAISSGDYYWSWVRQPPGKGLEWIGYIHYSGTTYNNPSLKSRVTIAVDTSKNQFSLKLSSVTAADTAVYFCGRDSDKNYFDYWGQGTLVTVSS
VL: QSVLTQPPSVSAAPGQKVTISCSGSSSNIGNNDVSWYQQLPGRAPKLLIYDNNKRPSGIPDRFSGSKSGTSATLGITGLQTGDEADYYCGAWDSSLSAHVVFGGGTKVTVL
notes: full-length IgG; also called Antibody Number 79
B17: ADI-46729 (antibody, V domains shown)
VH: EVQLVESGPGLVKPSQTLSLTCTVSGGSISSGSYYWSWIRQPAGKGLEWIGRIYTSGSTNYNPSLKSRVTMSVDTSKNQFSLKLSSVTAADTAVYYCARGWFGYSNYGLYYYYGMDVWGQGTTVTVSS
VL: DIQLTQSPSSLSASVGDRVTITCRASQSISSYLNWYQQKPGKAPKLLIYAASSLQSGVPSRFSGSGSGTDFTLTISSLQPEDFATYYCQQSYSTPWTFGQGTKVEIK
notes: full-length IgG; also called Antibody Number 70

These binders were tested against T1, recombinant YFV E protein (soluble E, sE; YFV Asibi strain) (Yellow fever virus, Asibi strain, UniProt Q6DV88 286-678) (assay: BLI monovalent (IgG on tip)).
T1 construct: also called YFV E antigen; YFV E monomer
T1 sequence (Q6DV88 286-678): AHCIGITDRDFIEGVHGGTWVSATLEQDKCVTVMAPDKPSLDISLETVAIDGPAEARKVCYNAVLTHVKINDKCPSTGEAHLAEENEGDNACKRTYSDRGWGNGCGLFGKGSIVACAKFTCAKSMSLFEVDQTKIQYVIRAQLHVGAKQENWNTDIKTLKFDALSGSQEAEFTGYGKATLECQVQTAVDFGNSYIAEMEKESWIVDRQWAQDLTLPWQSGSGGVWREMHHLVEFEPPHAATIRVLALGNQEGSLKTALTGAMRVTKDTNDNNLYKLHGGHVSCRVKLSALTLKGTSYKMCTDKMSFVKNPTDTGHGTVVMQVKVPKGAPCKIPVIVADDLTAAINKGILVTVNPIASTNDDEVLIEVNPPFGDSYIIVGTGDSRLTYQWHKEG

Row | Binder | Kd
1 | B1 | 0.999 nM
2 | B2 | 24.1 nM
3 | B3 | 1.88 nM
4 | B4 | 2.4 nM
5 | B5 | 1.05 nM
6 | B6 | 2.19 nM
7 | B7 | 4.05 nM
8 | B8 | 242 nM
9 | B9 | 16.8 nM
10 | B10 | > 100 nM
11 | B11 | > 100 nM
12 | B12 | 5.88 nM
13 | B13 | > 100 nM
14 | B14 | 4.01 nM
15 | B15 | 18 nM
16 | B16 | 3.54 nM
17 | B17 | > 100 nM
